Results as given in US20090061015.

Tests used:
[1] = target: T1, recombinant human AceCS2^myc-His (residues 38-689, C-terminal myc-His tag, purified from E. coli), acetylated at Lys642 (UniProt Q9NUB1)
T1 sequence: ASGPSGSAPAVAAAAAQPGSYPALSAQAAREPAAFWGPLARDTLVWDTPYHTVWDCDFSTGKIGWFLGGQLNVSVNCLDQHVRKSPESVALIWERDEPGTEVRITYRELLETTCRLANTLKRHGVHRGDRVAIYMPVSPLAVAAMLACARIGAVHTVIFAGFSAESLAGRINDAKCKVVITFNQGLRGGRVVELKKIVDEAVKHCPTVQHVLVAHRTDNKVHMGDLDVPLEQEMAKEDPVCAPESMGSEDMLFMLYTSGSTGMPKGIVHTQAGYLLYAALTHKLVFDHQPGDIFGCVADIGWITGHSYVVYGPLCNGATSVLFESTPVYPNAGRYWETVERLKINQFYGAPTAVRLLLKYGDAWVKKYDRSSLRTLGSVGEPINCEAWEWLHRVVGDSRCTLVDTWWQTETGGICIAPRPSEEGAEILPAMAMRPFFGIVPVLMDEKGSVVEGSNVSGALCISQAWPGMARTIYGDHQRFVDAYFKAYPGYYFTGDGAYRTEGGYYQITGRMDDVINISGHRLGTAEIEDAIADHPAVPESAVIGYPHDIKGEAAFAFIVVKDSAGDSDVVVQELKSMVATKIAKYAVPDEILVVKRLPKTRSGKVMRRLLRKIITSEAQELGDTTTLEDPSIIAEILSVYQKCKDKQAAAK

[2] = target: T2, recombinant human AceCS2^myc-His (residues 38-689, C-terminal myc-His tag, purified from E. coli), acetylated at Lys642, Q9NUB1
T2 chain: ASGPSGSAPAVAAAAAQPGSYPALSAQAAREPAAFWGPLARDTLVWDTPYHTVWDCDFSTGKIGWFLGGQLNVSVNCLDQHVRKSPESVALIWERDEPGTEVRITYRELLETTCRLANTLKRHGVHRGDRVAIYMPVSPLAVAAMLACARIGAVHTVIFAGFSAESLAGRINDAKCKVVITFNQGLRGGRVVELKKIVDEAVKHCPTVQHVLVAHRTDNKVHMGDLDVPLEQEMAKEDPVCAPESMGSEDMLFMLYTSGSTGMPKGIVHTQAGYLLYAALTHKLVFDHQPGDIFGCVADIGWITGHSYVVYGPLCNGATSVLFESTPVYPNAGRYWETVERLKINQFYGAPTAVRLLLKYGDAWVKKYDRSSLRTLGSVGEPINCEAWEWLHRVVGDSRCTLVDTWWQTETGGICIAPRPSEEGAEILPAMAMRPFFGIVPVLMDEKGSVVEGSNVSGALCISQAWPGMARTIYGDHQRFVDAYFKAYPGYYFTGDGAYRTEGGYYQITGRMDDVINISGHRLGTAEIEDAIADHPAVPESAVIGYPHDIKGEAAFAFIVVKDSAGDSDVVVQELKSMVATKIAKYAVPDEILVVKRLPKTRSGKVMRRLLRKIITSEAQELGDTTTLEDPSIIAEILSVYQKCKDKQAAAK

## recombinant human SIRT5 lacking the first 38 residues (residues 39-310, myc-His tagged)
[1]
  in vitro deacetylation of AceCS2 (immunoblot with acetyl-lysine-specific antibodies): both recombinant SIRT5 proteins failed to do so

## recombinant human SIRT5 lacking the first 11 residues (residues 12-310, myc-His tagged)
[1]
  in vitro deacetylation of AceCS2 (immunoblot with acetyl-lysine-specific antibodies): both recombinant SIRT5 proteins failed to do so

B1: Flag-tagged SIRT5 (SIRT5^Flag, expressed in HEK293 or COS-1 cells) (protein)
chain: SSSMADFRKFFAKAKHIVIISGAGVSAESGVPTFRGAGGYWRKWQAQDLATPLAFAHNPSRVWEFYHYRREVMGSKEPNAGHRAIAECETRLGKQGRRVVVITQNIDELHRKAGTKNLLEIHGSLFKTRCTSCGVVAENYKSPICPALSGKGAPEPGTQDASIPVEKLPRCEEAGCGGLLRPHVVWFGENLDPAILEEVDRELAHCDLCLVVGTSSVVYPAAMFAPQVAARGVPVAEFNTETTPATNRFRFHFQGPCGTTLPEALACHENETVS
[2]
  in vitro deacetylation of AceCS2 (immunoblot with acetyl-lysine-specific antibodies): it failed to deacetylate AceCS2

B2: Flag-tagged SIRT4 (protein)
chain: IGLFVPASPPLDPEKVKELQRFITLSKRLLVMTGAGISTESGIPDYRSEKVGLYARTDRRPIQHGDFVRSAPIRQRYWARNFVGWPQFSSHQPNPAHWALSTWEKLGKLYWLVTQNVDALHTKAGSRRLTELHGCMDRVLCLDCGEQTPRGVLQERFQVLNPTWSAEAHGLAPDGDVFLSEEQVRSFQVPTCVQCGGHLKPDVVFFGDTVNPDKVDFVHKRVKEADSLLVVGSSLQVYSGYRFILTAWEKKLPIAILNIGPTRSDDLACLKLNSRCGELLPLIDPC
[2]
  in vitro deacetylation of AceCS2: did not deacetylate AceCS2 (data not shown)

B3: recombinant human SIRT3 (residues 102-399, myc-His tagged, purified from E. coli) (protein)
chain: ISFSVGASSVVGSGGSSDKGKLSLQDVAELIRARACQRVVVMVGAGISTPSGIPDFRSPGSGLYSNLQQYDLPYPEAIFELPFFFHNPKPFFTLAKELYPGNYKPNVTHYFLRLLHDKGLLLRLYTQNIDGLERVSGIPASKLVEAHGTFASATCTVCQRPFPGEDIRADVMADRVPRCPVCTGVVKPDIVFFGEPLPQRFLLHVVDFPMADLLLILGTSLEVEPFASLTEAVRSSVPRLLINRDLVGPLAWHPRSRDVAQLGDVVHGVESLVELLGWTEEMRDLVQRETGKLDGPDK
[2]
  acetyl-CoA synthetase specific activity of AceCS2 after incubation with SIRT3: deacetylation by SIRT3 was associated with a significant increase in enzymatic activity
  in vitro deacetylation of AceCS2 (immunoblot with acetyl-lysine-specific antibodies): recombinant SIRT3 effectively deacetylated AceCS2
  in vitro deacetylation of hyperacetylated AceCS2 with NAD^+: This treatment led to a complete deacetylation of AceCS2
  time course of AceCS2 deacetylation and of its enzymatic activity: incubation of AceCS2 with SIRT3 and NAD^+ caused a progressive deacetylation of AceCS2 over time

B4: Flag-tagged SIRT3 (SIRT3^Flag, expressed in HEK293 or COS-1 cells) (protein)
chain: ISFSVGASSVVGSGGSSDKGKLSLQDVAELIRARACQRVVVMVGAGISTPSGIPDFRSPGSGLYSNLQQYDLPYPEAIFELPFFFHNPKPFFTLAKELYPGNYKPNVTHYFLRLLHDKGLLLRLYTQNIDGLERVSGIPASKLVEAHGTFASATCTVCQRPFPGEDIRADVMADRVPRCPVCTGVVKPDIVFFGEPLPQRFLLHVVDFPMADLLLILGTSLEVEPFASLTEAVRSSVPRLLINRDLVGPLAWHPRSRDVAQLGDVVHGVESLVELLGWTEEMRDLVQRETGKLDGPDK
[2]
  in vitro deacetylation of AceCS2 (immunoblot with acetyl-lysine-specific antibodies): immunoprecipitated Flag-tagged SIRT3 deacetylated AceCS2 in a NAD^+-dependent manner

B5: recombinant human SIRT3-H248Y (residues 102-399, myc-His tagged, purified from E. coli), catalytically inactive mutant (protein)
chain: ISFSVGASSVVGSGGSSDKGKLSLQDVAELIRARACQRVVVMVGAGISTPSGIPDFRSPGSGLYSNLQQYDLPYPEAIFELPFFFHNPKPFFTLAKELYPGNYKPNVTHYFLRLLHDKGLLLRLYTQNIDGLERVSGIPASKLVEAYGTFASATCTVCQRPFPGEDIRADVMADRVPRCPVCTGVVKPDIVFFGEPLPQRFLLHVVDFPMADLLLILGTSLEVEPFASLTEAVRSSVPRLLINRDLVGPLAWHPRSRDVAQLGDVVHGVESLVELLGWTEEMRDLVQRETGKLDGPDK
[2]
  in vitro deacetylation of AceCS2 (immunoblot with acetyl-lysine-specific antibodies): the catalytically inactive SIRT3-H248Y mutant did not deacetylate AceCS2, despite the presence of NAD^+
  in vitro deacetylation of hyperacetylated AceCS2 with NAD^+: No deacetylation of AceCS2 was observed when NAD^+ was omitted from the reaction, or when a catalytically inactive SIRT3 mutant (H248Y) was used
  time course of AceCS2 deacetylation: could not be observed with the inactive SIRT3-H248Y mutant
